B1: MATN2 (parent)
chain: TDDSYSCHCLKGFTLNPDKKTCRR

Variants of: B1
Assay: protein stability index of a GFP-peptide fusion (GPS, HEK-293T) (PSI 1-6); higher = more stable
Conditions: c terminus: a fixed tail appended
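Further: lentivirally expressed fusions sorted by FACS into six bins by GFP to DsRed ratio, PSI derived from sequencing read proportions per bin multiplied by bin number.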

Protein stability index: each site, then its substitutions
F13: E 2.45; S 2.21; Y 3.04; C 2.39; W 2.44; N 1.81; I 2.05; P 2.74; L 2.77; M 2.71; D 2.27; Q 2.02; V 2.21; K 2.55; T 2.3; G 2.88; R 2.14; A 2.88; H 1.98
L10: F 2.46; Y 2.32; H 1.86; E 2.22; W 2.98; Q 1.77; T 1.93; I 2.15; M 1.9; N 3.04; G 2.91; P 3.56; A 2.48; S 2.55; R 1.65; D 3.55; K 2.63; V 1.72; C 3.11
D18: L 2.23; C 2.57; S 2.27; V 2.42; M 2.48; N 2.38; R 2.65; P 2.61; H 2.83; Y 1.95; W 2.17; Q 1.97; A 2.11; K 2.86; E 1.77; T 2.24; I 2.62; G 2.36; F 2.01
S6: F 1.26; I 1.89; V 3.42; E 2.31; Q 1.76; Y 2.12; M 1.68; P 2.5; D 2.94; C 2.55; G 2.4; T 2.19; L 2.15; N 1.93; K 3.07; W 2.32; R 2.4; H 2.55
T21: G 1.33; I 2.4; D 2.6; C 2.75; H 2.62; F 1.57; K 2.06; E 2.89; A 2.2
C9: V 3.73; N 4.57; F 3.47; E 4.37; L 3.93; A 4.6; T 3.24; G 4.47; H 3.75; I 3.77; W 3.79; K 4.03; Y 3.88; Q 4.1; S 4.48; R 3.88; P 4.53; M 3.96
L15: D 2.14; Y 2.45; Q 2.8; T 2.02; C 2.9; N 2.03; P 2.42; G 1.74; A 2.45; E 2.58; W 2.48; I 2.12; V 2.55; H 1.97; S 2.17; F 2.86; R 2.81; M 2.38; K 2.64
G12: M 1.9; Q 2.85; L 2.45; K 2.41; D 2.19; P 2.63; S 2.1; R 2.08; C 2.54; A 2.45; E 2.27; F 1.98; W 2.01; T 2.39; N 2.24; V 1.79; H 2.91; Y 1.73; I 1.78
H8: W 2.63; T 2.08; L 2.4; R 2.51; F 2.14; N 1.91; P 1.63; S 2.3; M 2.92; I 2.27; C 2.05; V 2.33; A 1.66; Q 2.18; Y 2.71; E 2.84; K 4.02; G 2.76; D 2.05
K11: H 2.49; G 2.78; T 1.96; I 2.08; V 2.06; P 2.36; R 2.04; W 2.2; L 2.04; C 2.51; N 2.15; Y 2.4; D 2.44; E 2.87; Q 1.83; S 2.23; F 2.27; A 2.27; M 1.61
K20: I 2.1; A 2.68; F 1.85; D 2.29; L 1.32; N 2.04; G 2.09; P 1.93; Y 1.53; C 4.55; W 1.48; S 2.33; M 1.78; H 2.17; R 2.03; T 1.6; V 1.77; E 2.06; Q 2.95
D3: S 2.24; W 1.41; V 2.41; Y 1.76; T 2.01
K19: G 1.62; S 2.18; V 2.3; H 3.66; R 2.12; D 2.37; M 2.17; C 4.92; E 2.3; P 2.19; Y 2.25; Q 2.41; W 1.16; N 2.2; T 2.06; I 2.01; L 2.21; F 1.61; A 2.46
P17: H 2.42; A 2.25; T 2.5; Y 2.26; K 2.63; Q 2.14; R 2.35; M 2.71; I 2.01; D 2.65; V 2.92; L 2.02; F 2.3; E 2.77; G 2.57; N 2.28; W 1.65; C 3.48; S 2.11
T14: G 2.24; C 2.31; S 2.13; I 2.02; H 2.36; D 2.14; Y 1.6; Q 1.67; L 2.01; V 3.45; K 2.16; R 2; F 1.32; W 2.69; P 1.79; N 2.68; E 2.23; M 1.64; A 2.69
N16: D 2.17; K 2.33; G 2.23; W 1.6; Q 1.56; L 2.24; E 2.06; T 1.91; I 2.89; M 2.65; S 2.24; R 2.75; P 2.85; A 2.68; H 2.3; C 2.97; F 1.8; Y 2.4; V 2.56
S4: Q 2.3; Y 1.77; R 2.03; A 1.34; L 1.84; K 2.56; T 2.04; W 1.81; E 2.79; I 2.87; H 2.66; N 1.23; P 2.64; F 1.83; M 2.22; G 1.88; V 2.22; D 2; C 1.8
C7: E 4.61; W 3.21; Q 4.27; R 3.88; H 3.54; K 4.21; L 4.59; F 3.96; Y 3.71; M 4.22; V 4.28; S 4.54; D 4.78; G 4.45; P 3.65; A 4.59; T 4.54; N 4.38; I 3.9
Y5: V 2.86; L 3.53; T 2.58; H 2.66; M 3.58; G 2.69; P 2.14; Q 3.42; W 2.23; E 2.74; R 2; N 3.36; A 3.04; I 2.06; K 2.65; D 2.72; S 2.66; F 2.36

Reference: the supplement of paper PMC10567573
